Source: the DeepSol protein solubility set

Assay: soluble on expression in E. coli; label from the status in PepcDB or PDB records

In the case of “YLSDVISSPQFEQAKSPTTVVLGQDIAGEAVIADIAKMPHVLVAGTTGSGKSVGVNVMILSMLYKASPEDLRFIMIDPKMLELSIYEGIPHLLAEVVTDMKDASNALRWCVGEMERRYKLMSALGVRNVKGFNEKLKMAAEAGHPIHDPFWQEGDSMDTEPPLLEKLPYIVVVVDEFADLMMVVGKKVEELIARLAQKARAAGIHLILATQRPSV”, the “soluble on expression in E. coli” value is reported as “not soluble”.
In the case of “MGSDKIHHHHHHMEITKRIEELREEMVESLKKFISINSVNPAFGGPGEKEKADWLEGLLRDFGFEVDRCDVRDDRGIWRSNIVAKIPGKNREKTLWIVTHIDTVPPGDLSLWETDPFVPVVKDGKVYGRGAEDNGGSMIASIYAGKALIDLGITPEYNFGLALVADEEAGSEYGIQYLIEKGLFSPEDMFLVPDAGNEKGDFIEIAEKSILWFKVMVNGKQGHASRPQTTENALRKGAHLITEIDEALHRKYSDRDELFDEPLSTFEPTRAEKTVDNVNTVPGRFVFYFDCRVLPRYNLDEVLSIVKSILDGRGAELEVVVKQPAPEPTPPDSELVVKLSNVLRSLRGLEAKVGGIGGGTCAAFFRKKGWPAVVWSTIDETAHQPNEYRRISHMVEDAKVFALLGTER”, the “soluble on expression in E. coli” value is reported as “not soluble”.
For “GPGSMNAASYSGSGLASAATVEDVVKPDTIAAILAQLKEQDVRIGRLEAAVERSAINRTHFDILTMAGVTADFVCDEISFHNRSTVEFNALPCKVTLDYPCGELSILLDDADSDLSFLGVTLRVDCITDCHLLVDPDNCSVVVDTNTSKITDVTQLVLVGPTQEATRELYEALRDVVAQRRPPCSPAPDTTTTTTRNSSRALINRSEGEYESTLGGDGKLFSIEATPNNAGTTRNNVDASSSPRLQLSNTLPCDRTAHTPVDPRRPNTLPSFSANRKGTQQE”, the “soluble on expression in E. coli” value was “soluble”.
In the case of “HMSKVPRNFRLLEELEKGEKGFGPESCSYGLADSDDITMTKWNGTILGPPHSNHENRIYSLSIDCGPNYPDSPPKVTFISKINLPCVNPTTGEVQTDFHTLRDWKRAYTMETLLLDLRKEMATPANKKLRQPKEGETF”, the “soluble on expression in E. coli” value is reported as “soluble”.
For “MSLSAYAELHCLSNFSFQRGASSAAELFQRAKALGYQALAITDECTLAGIVRAWQASRDTGLKLIVGSEMQVEDGPRLVLLVEDLAGYQGLCRLITRARRRAEKGSYRLLREDFAEPLPGLLALWLTGAGEPLAQGRWLQQVFPQRLWLALELHCGQDDARHLQQQLALARQLGLPAVACGDVHMHVRGRRALQDTMTAIRHHLPVAEAGQRLFANGERHLRPVEVLQGLYPQALLDESLAIAGRCAFDLGQLRYQYPRELVPEGHDAGSWLRVLTQRGIVRRWPTGARAEVLKQIDKELTLICDLGYESYFLTVHDIVDFARRQHILCQGRGSAANSVVCFALGITEIDPDRSTLLFERFLSRERNEPPDIDVDFEHERREEVLQYLFQRYGRHRAALTAVVSTYHGAGAVRDVAKALGLPPDQVNALADCCGHWSDTPPSVERLQEAGFDPQSPVLRRVLSLTGQLIGFPRHLSQHPGGFVISEQPLDHLVPVENATMAERTVIQWDKDDLDMVGLLKVDILALGMLSAIRRCFDLIHGYRGQRYSLASIPPEDPATYEMIGRADTIGVFQIESRAQMSMLPRLKPQNFYDLVIEVAIVRPGPIQGGMVHPYLRRRNRQEPETYPSPELEGVLKRTLGVPLFQEQVMQIAIVAADYTPGEADQLRRSMAAWKRHGGLEPHRERLRRGMNRNGYSDEFATQIFEQIKGFGSYGFPESHAASFALLTYASCWLKCHEPAAFACALINSWPMGFYSPDQILQDARRHGLQVLAVDVGASDWDCSLEPIPVQPARAGNGPPGQPALRLGLRMIKGFREDDARRIERARRQRAFVDIADLGERARLDVRAQELLADAGALQALAGDRYRARWEVAGVERQLGLFAEGHHHHHH”, the “soluble on expression in E. coli” value was “soluble”.
In the case of “MSERQSKYFDYQGIVISSTGQDNQDSETDLVYLIQAHGKAAPKNIMYGVSKCAFVPTNLERNFDNIEEAKNLERRSKIPLKFGEVILWNESDCDHDKRIILHIKREKPIYEASSSRNGLILKVGGVIQPTSTTSFWTPLCTVTMPETEATRAEPDVWLYAWIRFETTMKSGLDPFNMTATFESFDSCDPSDQARVCEAPWNAGSPDSKFGVWRPDPKPADSDDEIDIEPREGWHLPEDKWAEVIKMQLGLYVGERLLICKELSQFDFIIPLQKPFSRGTDKTLIYPAVGEYFHFSAIWSMQHNGFLIYELQPVPLLRQHVTSVNGNLLTRVVPASIRGLFVDKEGTLGLIDDPHHLLSFFEFHPAGYEFLKAMAEVRAVRTSENKSVRYRIVRTSGMSIFENWLRDTQFVVGPVKGIRINEDTVICAKHPNVYFKIPNNLKEGIPIGGGVQFVGKRQAGVDSEIMITECSPCPAFTCKNYSVSGDTRLFQVYLKPNCDHEQLAESDSMGFVDFRELETPCRGKFLAWVRESITVNDCRRAATIMEVCSTAICPPLIAMSANSSRATSARTTPAGSSIGSRSSIQSRASAATSVSSNRFVGPSSRRTPSGTPQSSTSSRV”, the “soluble on expression in E. coli” value is reported as “not soluble”.
For “SKERRAPQPVVARCKLVLVGDVQCGKTAMLQVLAKDCYPETYVPTVFENYTACLETEEQRVELSLWDTSGSPYYDNVRPLCYSDSDAVLLCFDISRPETVDSALKKWRTEILDYCPSTRVLLIGCKTDLRTDLSTLMELSHQKQAPISYEQGCAIAKQLGAEIYLEGSAFTSEKSIHSIFRTASMLCLNKPSPLPQKSPVRSLSKRLLHLPSRSELISSTFKKEKAKSCSIM”, the “soluble on expression in E. coli” value was “soluble”.
With “MTIDKLKLNTINLRNTFSNRSKPPISIITSTNKPKYFRNTIKNYTRLNYRYKELILIFNIDNIDIDYYKSYAEKIPNVMVFQLNECYSLGYCLNFGVNQSKYNYIAKMDDDDYYGPNYLTDEINAFNYTDAKIIGKCKYFTYFEDTRDLSINNYSQSYDYTNFIAGGTFLIKKELFKTYKFRDVNMSEDAGFLDDCSSHGIKIYSIDPFNYVYMRHKSLNEHTWKIPTTALKKQYFHFYKTTNYIPIVKILEHHHHHH” the “soluble on expression in E. coli” value was “not soluble”.
For “MNNNLQRDAIAAAIDVLNEERVIAYPTEAVFGVGCDPDSETAVMRLLELKQRPVDKGLILIAANYEQLKPYIDDTMLTDVQRETIFSRWPGPVTFVFPAPATTPRWLTGRFDSLAVRVTDHPLVVALCQAYGKPLVSTSANLSGLPPCRTVDEVRAQFGAAFPVVPGETGGRLNPSEIRDALTGELFRQG”, the “soluble on expression in E. coli” value was “soluble”.
In the case of “MKFDIVVIGGGLAGASLLAALKGSGLRLALIESRPPAPLPDDDSWDARVYAISPGSVEFLQSSGIWQRMNAARITPVHEMRVHGDDNAARIDFSAYESGVPELACIIENRQLQHAVWEELAGAENVQIFCPAQCDSLAWQDSHVELTLADGTVLQTALLIGADGINSRVREQAGIGVDRHSYYQTGVVANFETERVHHHIAYQWFRRDGILALLPLPGKRVSMVWSANTALADELLNLSAEALCDRVARAAEYELGSMRLVTAPLGFPLNFVHARSLIKPRLALIGDAAHGIHPLAGQGVNLGLRDVRELARLQRQFGGIGDCGEFSLLRCYERNRKEDILAMGWVTDGLQKLFGSEDAAIMRIRNVGLGITNRLPLLKNRLMRHALSLEHHHHHH”, the “soluble on expression in E. coli” value is reported as “not soluble”.
For “MGSDKIHHHHHHMSRISEEIENLTVELVKVPSVNGTEGEGNIGNKILSYLKEIDYFKEHEEYAFRIPLKNDKLGRGNVFALIRGEKGQSNRTIILHGHMDTVAVDDYGSLKDYAFDPDILQKKLKEIELPEEVREDLDSGDWMFGRGASDMKSGDAVHLVVLKELSKRVKDISGNILFMSNPVEENEHNGIREALDTLEKLKEKYSLEYTLAINNDYICPMYKGDNTRYLYTGTVGKLLPAFYFVGKETHVGQCFEGINADVIASEVINEIDLNVDLCDEYNGEYTLPPSVLKFKDLKESYNVQTPFSSFAYFNYTVHSESPKQASEKLKKAAKRAFERVIKRNDDRYKKYCEMTNQKYEPLNFQAKVITYTQLYTLAKARFSGDLDKEIKSYEQRLVDNYVDIREISLRVVDKVFNIWGEKKPCIVMFFAPPYCPHNTLNVKNEKEKEIINKIKECAQQLKEKEGINEEFKVMQFFPSLSDSSYLKIDDDSEGIESLTSNFPGWDRVYGVPVQKIKDLNIPAINYGCYGKDAHKWTERVYKPYSFEVLPKLIMLTIEKFL”, the “soluble on expression in E. coli” value was “not soluble”.
With “MCLVNEFVSNSNMKPALNVSGDEKELILQLRRYLEEKLTYLLDQNGTVSIGVSGGSMPRVFSKAILSLPQEQLNWKRIRIFMVDERNVDLDSEESNQGEYLRLFPNELRDVFVPMQIFKDPCLTAQHYEISLRKYLLPEQLNNTARFDILFLGVGPDGHTASIFPGKERLEKITELNWVSVITDSPKPPPSRITLTLQTLQHAKNVAFIICGKQKAEIVRGICDRDQKYPAAQARPFNDKLTLFLDEDAATGVPDRDSSDSDSPPPFDG” the “soluble on expression in E. coli” value was “not soluble”.
In the case of “MVKKVLLINGPNLNLLGTREPEKYGTTSLSDIEQAAIEQAKLKNNDSEVLVFQSNTEGFIIDRIHEAKRQGVGFVVINAGAYTHTSVGIRDALLGTAIPFIEVHITNVHQREPFRHQSYLSDKAVAVICGLGVYGYTAAIEYALNY”, the “soluble on expression in E. coli” value is reported as “soluble”.
For “MADETTMRAGRGPGRACGRVSGVRILVVEDEPKMTALLARALTEEGHTVDTVADGRHAVAAVDGGDYDAVVLDVMLPGIDGFEVCARLRRQRVWTPVLMLTARGAVTDRIAGLDGGADDYLTKPFNLDELFARLRALSRRGPIPRPPTLEAGDLRLDPSEHRVWRADTEIRLSHKEFTLLEALIRRPGIVHTRAQLLERCWDAAYEARSNIVDVYIRYLRDKIDRPFGVTSLETIRGAGYRLRKDGGRHALPR”, the “soluble on expression in E. coli” value was “not soluble”.
For “MGSDKIHHHHHHKQTVSSESTEELDDASKVINYYHMSLAVLRHVANAKDINAVLGYMEQTGKVPEVDPIAPPEIAARDTAELLDPGDYFNPEVRQNLKQNYAGLFNVRTQFYDNFNKFLAYKKSKDTAKTAQLLDENYKLSVELSEYKQVIFDILSPLTEQAESELLADEPLKDQIMAMRKMSGTVQSIMNLYSRKHAMDGVRIDLKMAELEKELKAAEKIPAVTGYDEELKNFQSFLSTVKSFMNDMQKARSKGAYSDKEYQAMSEAYEYGLSVI”, the “soluble on expression in E. coli” value was “not soluble”.
With “KGDWAWQAGFSLSGVKNEITDMKGVEDIKDNTINREGEAIGSYYGLKAIGIYRTQADLDRVNANGQKILQNNQEPQLGDIMYEDIDNNGNINDADRTIIGNPFPKMQYSFNLGFSYKDFDVNTFWQGIAGVYRYNWDETTISNGGNKTSRWLDRWSESNPNGSMPRLGGTINNNYSSFWLTKGDYLRLKNLEIGYTFRQREFLTKLGVQSIRLYLAGTNLLTFTSLDDYDPEKLSTDSRNDVHPNTRTYSFGVNVKF” the “soluble on expression in E. coli” value was “not soluble”.
For “DIELTQSPPSLPVSLGDQVSISCRSSQSLVSNNRRNYLHWYLQKPGQSPKLVIYKVSNRFSGVPDRFSGSGSGTDFTLKISRVAAEDLGLYFCSQSSHVPLTFGSGTKLEIKR”, the “soluble on expression in E. coli” value was “soluble”.
For “MGSDKIHHHHHHMPQGKANPFNINTSVKNGTVAKVGSISPTSFLNSVDPNATEVDVGGEPFNQKEFLELALNDDFLKGLLLDEEGNIKPEVAGEATIQGLEQWHQNDAGLEVDDTDTLGLMFNYYLNDNVSLQFIGGIPPKVDIKGQGEILAPLSGVALSPNELVKILFPNGITLGQAVPITNLGNKPKAASVRAWTPAIEAQYQFGKSGVNKFRPYLGVGLMYAHFNDIKLNDEIRSDLISAGHMIQNVLDGKAGAALDRKESSGNMVVKVDADDAIAPIFTAGFTYDFNDSWYTVASVSYAKLNNRTQIDVINQNTGARLIHGSTKVDIDPIITYLGVGYRF”, the “soluble on expression in E. coli” value was “not soluble”.
With “MAHHHHHHMLNPTFSLYRKTLQSYPVPPKIRHYDRRWSGSRTNPYNRQYWRVIMNENYSRPSFWVSDFRHRYLMRTGTDYQGQVPSSPQPGLYQGFSDVHKLLANHPKPQRESRHLPVLPMTPRVVFEHANEKRIDTAKKMRRDRRRIEELKTLEFWGWYMKLQRVRGRWCREQGVSSRGVYGPAVDAAELWG” the “soluble on expression in E. coli” value was “not soluble”.
In the case of “MGHHHHHHSHMKVAQAKLKEIGPDDMNMEEYKKWHEDYSLFRKVSVYLLTGLELYQKGKYQEALSYLVYAYQSNAALLMKGPRRGVKESVIALYRRKCLLELNAKAASLFETNDDHSVTEGINVMNELIIPCIHLIINNDISKDDLDAIEVMRNHWCSYLGQDIAENLQLCLGEFLPRLLDPSAEIIVLKEPPTIRPNSPYDLCSRFAAVMESIQGVSTVTVK”, the “soluble on expression in E. coli” value is reported as “not soluble”.
